Measurements as given in patent publication US11261216B2, “Engineered hepatitis B core polypeptide” (priority 2018, dated 2022).

B1: HP spike transplant: HepBc with HP series of amino acid changes in the spike region; HBc(HP) is SEQ ID NO: 3 (protein)
chain: MDIDPYKEFGATVELLSFLPSDFFPSVRCLLDTAAALYRDALESPEHCSPHHTALRQAVSCWREVTDFGDWVGNNMQDQAARDLVVNYVNANIGLKIRQLLWFHISCLTFGRETVLEYLVSFGVWICTPPAYRPPNAPILSTLPETTVV

Experiment: VLP assembly induced by NaCl, quantified by size-exclusion chromatography
Format: physicochemical
Description: Improved VLP purification method. HepBc proteins were expressed using standard cell-free protein synthesis reactions as described above. The improved purification strategy first used Sephadex G25 columns to exchange the samples into a 50 mM Tris, 25 mM Imidazole, 0.1% Tween-20, pH 7.4 buffer solution. Insolubles were removed using centrifugation at 10 k×g for 15 min before loading the soluble fraction onto the Ni-NTA column. After loading, the Ni-NTA column was washed with 4 column volumes (CV) of 50 mM Tris, 25 mM Imidazole, 0.1% Tween-20, pH 7.4 and then eluted with 50 mM Tris, 250 mM Imidazole, 0.1% Tween-20, pH 7.4 (5CV total). […] Assembled VLPs were quantified and purified by applying 200 μL of the samples to 2.2 mL Sepharose 6 Fast Flow size-exclusion chromatographic resin, eluting 24×150 μL fractions. Protein concentration in each fraction was determined by measuring the radioactivity using liquid scintillation counting. […]
VLP purification method. […] Assembled VLPs were quantified and purified by applying 200 μL of the samples to 2.2 mL Sepharose 6 Fast Flow size-exclusion column, applying the assembly buffer, and collecting 24×150 […]. Protein concentration in each fraction was determined by measuring the radioactivity using liquid scintillation counting. […]

Molecule | NaCl concentration (ionic strength) required for VLP assembly
wild-type: Wild-type truncated Hepatitis B core protein HBc149, SEQ ID NO: 1 | 0.5 M
B1 | 1.5 M
